Peptide exchange yield data for 27 molecules are collected here from patent publication US20170165337A1 (IMMATICS BIOTECHNOLOGIES, published 2017).

The test deals with T1, HLA-A*02:01 (human).
T1 construct: MHC class I monomer of the UV-ligand exchange assay; also called peptide-receptive MHC molecules; MHC class I
Description: UV peptide-exchange ELISA. In outline: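 Peptide-MHC complexes formed by UV-mediated exchange of a UV-cleavable peptide for the test peptide; exchange yield quantified by β2m ELISA. Diluted 100-fold, captured on streptavidin-coated plates 1 h at 37 °C, detected with HRP anti-β2m and TMB at 450 nm against refolded HLA-A*02:01 monomer standards (15-500 ng/ml).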

Some results are limits rather than exact numbers.

Molecule ELLEGSEIYL registered a peptide exchange yield of 50 to 75%.
In turn, LLYNSTDPTL registered a peptide exchange yield of 50 to 75%.
Next, NLQVTQPTV: 50 to 75%; RLLEFELAQL: 50 to 75%.
TLENGVPCV showed a peptide exchange yield of 50 to 75%.
The molecule NLLAHIWAL returned a peptide exchange yield of 50 to 75%.
For the molecule LVYEAPETV, the peptide exchange yield was 50 to 75%.
The result for VLAFLVHEL reads not below 75%.
Take LMADLEGLHL: the peptide exchange yield lay in the range of 50 to 75%.
Next, SLASIHVPL: 50 to 75%.
Next, ELMHGVAGV: 50 to 75%; TIAPVTVAV: not below 75%.
Consider LMKDCEAEV, for which the peptide exchange yield lay within 50 to 75%.
LLSTLHLLV yielded a peptide exchange yield of 50 to 75%.
For the molecule SLYSALQQA, the peptide exchange yield is 50 to 75%.
For LLLTKPTEA, the peptide exchange yield fell in the range of 50 to 75%.
As to ILYGTQFVL, the peptide exchange yield is 50 to 75%.
The result for MLLEHGITL reads 50 to 75%; that for VIAELPPKV, 20 to 50%; that for LLVDVEPKV, 50 to 75%.
For the molecule SLYDVSRMYV, the peptide exchange yield was not below 75%.
Next, VLLPQETAEIHL: not below 75%.
VVAEELENV came in with a peptide exchange yield of 20 to 50%.
In turn, QVIPQLQTV yielded a peptide exchange yield of 50 to 75%.
Turning to SLDLFNCEV, the peptide exchange yield is not below 75%.
The result for FIDKFTPPV reads not below 75%; that for VLIKWFPEV, not below 75%.
